Test results as given in the supplement of paper PMC7125110.
± gives the standard error. Variants at the floor of the assay were thinned out.

B1: glmS ribozyme (parent)
chain: AUAAAAGCGCCAGAACUACAGAAAUGUAGUUGACGAGGAGGAGGUUUAUCGAAUUUUCGGCGGAUGCCUCCAAA

Variants of: B1
Test: self-cleavage kobs at 2500 uM GlcN6P; higher = faster cleavage; RNA array
Details: with glucosamine-6-phosphate
In short: (§1)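 Tracking of barcoded ribozyme variants used a hybridised Cy3 probe at 37 °C, after in situ transcription by E. coli RNA polymerase on sequenced MiSeq chips. The flowed solution held 40 μM to 10 mM glucosamine-6-phosphate in HEPES/KCl/Mg(OAc)2 buffer, and imaging ran over ~14 h. kobs was taken from exponential decay fits of normalised per-tile medians, and kcat and KM from weighted Michaelis–Menten fits.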

Q: With AUAAAAGCGCCAGAACUACAGAAAUGUAGUUGACGAGGAGGAGGUCUAUCGAAUUUUCGCUGGAUGCCUCCAAA [U46C G60C C61U] as the variant, how does the “self-cleavage kobs at 2500 uM GlcN6P” value read?
A: The value was < 1e-05 s⁻¹.

Q: Which “self-cleavage kobs at 2500 uM GlcN6P” value does the source give for AUAAAAGCGCCAGAACUACAGAAAUGUAGUUAACGAGGAGGAGGCUUAUCGGAUUUUCGGCGGAUGCCUCCAAA [G32A U45C A52G] here?
A: The value was < 1e-05 s⁻¹.

Q: For AUAAAAGCGCCAGAACUACAGAAAUGUAAUUCACGAGGAGGAGGUUUAUCGAAUUUUCGGCGGUUGCCUCCAAA [G29A G32C A64U], which “self-cleavage kobs at 2500 uM GlcN6P” value is on record?
A: Its value is < 1e-05 s⁻¹.

Q: How did the “self-cleavage kobs at 2500 uM GlcN6P” value turn out when AUAAAGGCGCCAGAACUACAGAAAUGUAGUUGACGAGGAGGAGGUUUAUUGAAUUUUCGGCGGCUGCCUCUAAA [A6G C50U A64C C71U] was run?
A: The value was < 1e-05 s⁻¹.

Q: For AUAAAAGCGCCAGAUCUACAGAAAUGUAGUUCACGCGGACGAGGUUUAUCGAAUUUUCGGCGGAUGCCUCCAAA [A15U G32C A36C G40C], which “self-cleavage kobs at 2500 uM GlcN6P” value is on record?
A: The value was < 1e-05 s⁻¹.

Q: With AUAAAAGCGCCAGAACUACAGAAAUGUAGUUGACGAGGAGGAGGUUUAUCGAAUUGUCGGCGGAUCCCUCUAAA [U56G G66C C71U] as the variant, how does the “self-cleavage kobs at 2500 uM GlcN6P” value read?
A: The value was 0.000269 ± 5.5e-05 s⁻¹.

Q: Which “self-cleavage kobs at 2500 uM GlcN6P” value does the source give for AUAAAAGCGCCAGAACUACAGAAAUGUAGUUGACGAAGAGGAGGUUUAUCGUAUUUACGGCGGAUGCCUCCAAA [G37A A52U U57A] here?
A: The value was 8.64e-05 ± 3.1e-05 s⁻¹.

Q: How did the “self-cleavage kobs at 2500 uM GlcN6P” value turn out when AUAAAAGCGCCAGAACUACAGAAAUGUACUUGACGAGGAGGAGGUUUAUCGAAUUUUGCGAGAAUGCCUCCAAA [G29C C58G G59C C61A G63A] was run?
A: The value was < 1e-05 s⁻¹.

Q: With AUAAAGGCGCCAGAACUACAGAAAUGUAGUUGACGAGGAGGAGGUUUAUGGAAUUUUCGGUGGAUGCCUCCAAA [A6G C50G C61U] as the variant, how does the “self-cleavage kobs at 2500 uM GlcN6P” value read?
A: Its value is 0.000108 ± 3.5e-05 s⁻¹.

Q: Which “self-cleavage kobs at 2500 uM GlcN6P” value does the source give for AUAAAAGCGCCAGAACUACAGAAAUGUAGUUGACGAGGAGGAGGUUUAUUGAAUUUUCGACGAAUGCCUCCAAA [C50U G60A G63A] here?
A: Its value is < 1e-05 s⁻¹.

Q: Which “self-cleavage kobs at 2500 uM GlcN6P” value does the source give for AUAAAAGCGCCAGAACUACAGAAAUGUAGUUGACGAAGAGGAGGUUUAUCGAAUUUUCGGCGGAGGACUCCAAA [G37A U65G C67A] here?
A: The value was 4.8e-05 ± 1.1e-05 s⁻¹.

Q: AUAAAAGCGCCUGAACUACAGAAAUGUAGUUGACGAGGAGCAGGUGUAUCGAAUUUUCGGCGGAUGCAUCCAAA [A12U G41C U46G C68A] was tested. Which “self-cleavage kobs at 2500 uM GlcN6P” value did it give?
A: The value was < 1e-05 s⁻¹.

Q: For AUAAAAGCGCCAGAACUACAGAAAUGUAGUCGACGAGGAUGAGGUGUAUCGAAUUUUCGGCGGAUGCCUCCAAA [U31C G40U U46G], which “self-cleavage kobs at 2500 uM GlcN6P” value is on record?
A: Its value is 3.61e-05 ± 1.5e-05 s⁻¹.

Q: AUAAAAGCGCCAGAAGUACAGAAAUGUAGAUGACUCGGAGGAGGUUUAUCGAUUUUUCGGCGGAUGCCUCCAAA [C16G U30A G35U A36C A53U] was tested. Which “self-cleavage kobs at 2500 uM GlcN6P” value did it give?
A: The value was < 1e-05 s⁻¹.

Q: For AUAAAAGCGCCAGAACUACAGAAAUGUAGUUAACGAGGAGGAGGUUUAUCGAAAUUUCGGCGGAUGCCUGCAAA [G32A U54A C70G], which “self-cleavage kobs at 2500 uM GlcN6P” value is on record?
A: The value was 0.000378 ± 5.3e-05 s⁻¹.

Q: How did the “self-cleavage kobs at 2500 uM GlcN6P” value turn out when AUAAAAGCGCCGGAACUACAGAAAUGUAGUUGCCGACGACGAGGUUUAUCGAAUUUUCGGCGGAUGCCUCCAAA [A12G A33C G37C G40C] was run?
A: Its value is < 1e-05 s⁻¹.

Q: AUAAAAGCGCCAGAACUACAGAAAUGUAGUUGACGAGGAGGAGGCUUAUCGUAUUUUCGGCGGAUGCUUCCAAA [U45C A52U C68U] was tested. Which “self-cleavage kobs at 2500 uM GlcN6P” value did it give?
A: Its value is < 1e-05 s⁻¹.

Q: With AUAAAAGUGCCAGAACUACAGAAAUGUAGUUGACGAGGAGGAGGUUUAUCGAAUGUUCGGCGGAGGCCUCCAAA [C8U U55G U65G] as the variant, how does the “self-cleavage kobs at 2500 uM GlcN6P” value read?
A: The value was < 1e-05 s⁻¹.

Q: For AUAAAAGCGCCAGAACUACAGAAAUGUAGUUGAUGAGGAGGAGGUUUAUCGAAUUUUCAGCGGAUGCCUCUAAA [C34U G59A C71U], which “self-cleavage kobs at 2500 uM GlcN6P” value is on record?
A: Its value is < 1e-05 s⁻¹.

Q: For AUAAAAGCGCCAGAACUACAGAAAUGUAGUUGACGAGGAGGAGGAUUAUCGAAGUUUCGGCGGAUGCGUCCAAA [U45A U54G C68G], which “self-cleavage kobs at 2500 uM GlcN6P” value is on record?
A: Its value is 9.7e-05 ± 3.2e-05 s⁻¹.

Q: Which “self-cleavage kobs at 2500 uM GlcN6P” value does the source give for AUAAAAGCGCCGGAACUACAGAAAUGUAGUUGACGAGGAUGAGGUAUAUCGAAUUUUUGGCGGAUGCCUCCAAA [A12G G40U U46A C58U] here?
A: Its value is < 1e-05 s⁻¹.

Q: With AUAAAAGCGCCAGAACUACAGAAAUGUAGUCGACGAGGAGGAGGUUUAUCGACUCUUCGGCGGAUGCCUCCAAA [U31C A53C U55C] as the variant, how does the “self-cleavage kobs at 2500 uM GlcN6P” value read?
A: Its value is 0.000164 ± 5e-05 s⁻¹.

Q: With AUAAAAGCGCCAGAACUACAGAAAUGUAGUUGACGAUGAGGUGGUUUAUCGAAGUUACGGCGGAUGACUCCAAA [G37U A42U U54G U57A C67A] as the variant, how does the “self-cleavage kobs at 2500 uM GlcN6P” value read?
A: The value was < 1e-05 s⁻¹.

Q: How did the “self-cleavage kobs at 2500 uM GlcN6P” value turn out when AUAAAAGCGCCUGAACUACAGAAAUGUAGUAGACGAGGAGGAGGUUUAUGGAAUUUUCGGUGGAUGCCUCCAAA [A12U U31A C50G C61U] was run?
A: Its value is 6.19e-05 ± 2.1e-05 s⁻¹.

Q: With AUAAAAGCGCCAGGACUACAGAAAUGUAGUUGACGAGGAGGAGGUUUGUCGAAUUUUCGGCGGAUGCCUCUAAA [A14G A48G C71U] as the variant, how does the “self-cleavage kobs at 2500 uM GlcN6P” value read?
A: The value was 0.000156 ± 5.8e-05 s⁻¹.

Q: For AUAAAAGCGCCAGAACUACAGAAAUGUAAUUGACGAGGAGGAGGUUUAUCGAAUUUUCGGCGAAUGCCUCCAAA [G29A G63A], which “self-cleavage kobs at 2500 uM GlcN6P” value is on record?
A: The value was < 1e-05 s⁻¹.

Q: Which “self-cleavage kobs at 2500 uM GlcN6P” value does the source give for AUAAAAGCGCCAGAACUACAGAAAUGUAGUUGACUAGGAGGAGGUUUAUCGAAUUUUCGACGGAUGCCUGCAAA [G35U G60A C70G] here?
A: Its value is < 1e-05 s⁻¹.

Q: Which “self-cleavage kobs at 2500 uM GlcN6P” value does the source give for AUAAAAGCCCCAGAACUACAGAAAUGUAGUUGACGAGGGGGAGGUUUAUUGAAUUUUCGGCGGAUGCCUCAAAA [G9C A39G C50U C71A] here?
A: The value was < 1e-05 s⁻¹.

Q: For AUAAAAGCGCCAGAACUACAGAAAUGUAGUUGACGCGGAGGAGGUUUAUCGGAUUUUCGGGGGAUGCCUCCAAA [A36C A52G C61G], which “self-cleavage kobs at 2500 uM GlcN6P” value is on record?
A: Its value is < 1e-05 s⁻¹.

Q: Which “self-cleavage kobs at 2500 uM GlcN6P” value does the source give for AUAAAGGCGCCAGAACUACAGAAAUGUAGUUGACGAGAAGGAGGUUUAUGGAAUUUGCGGCGGAUGCUUCCAAA [A6G G38A C50G U57G C68U] here?
A: Its value is 8.04e-05 ± 1.4e-05 s⁻¹.

Q: AUAAAAGCGCCAGAAAUACAGAAAUGUAGUUGACGAGGAGCAGGUUUAUCGAAUUUUCGGCGGAUGCCUUCAAA [C16A G41C C70U] was tested. Which “self-cleavage kobs at 2500 uM GlcN6P” value did it give?
A: The value was 5.88e-05 ± 1.8e-05 s⁻¹.

Q: For AUAAAAGCGCCAGAACUACAGAAAUGUAGUUGACGAGGAAGAGGUGGAUCGAAUUUUCGGCGGAUGCCUCCAAA [G40A U46G U47G], which “self-cleavage kobs at 2500 uM GlcN6P” value is on record?
A: The value was 0.000358 ± 0.00012 s⁻¹.

Q: How did the “self-cleavage kobs at 2500 uM GlcN6P” value turn out when AUAAAAGCGACAGAACUACAGAAAUGUAGCUGACGAGGAGGAGGUUUAUCGAAUCUUCGGCGGAUGCCUCCAAA [C10A U30C U55C] was run?
A: Its value is < 1e-05 s⁻¹.

Q: For AUAAAAGCGCCAGAACUACAGAAAUGUAGUUGACGAGGAAGAGGUUUAUCGAAUUUUCCGCGAAUGCAUCCAAA [G40A G59C G63A C68A], which “self-cleavage kobs at 2500 uM GlcN6P” value is on record?
A: The value was < 1e-05 s⁻¹.

Variants of: B1
Test: self-cleavage kobs at 10000 uM GlcN6P; higher = faster cleavage; RNA array
Details: with glucosamine-6-phosphate
In short: as §1

Q: AUAAAAGCGCCAGAACUACAGAAAUGUAGUUGACGAGGAGGAGGUCUAUCGAAUUUUCGCUGGAUGCCUCCAAA [U46C G60C C61U] was tested. Which “self-cleavage kobs at 10000 uM GlcN6P” value did it give?
A: The value was < 1e-05 s⁻¹.

Q: Which “self-cleavage kobs at 10000 uM GlcN6P” value does the source give for AUAAAAGCGCCAGAACUACAGAAAUGUAGUUGACGAAGAGGAGGUUUAUCGUAUUUACGGCGGAUGCCUCCAAA [G37A A52U U57A] here?
A: Its value is 0.000104 ± 1.9e-05 s⁻¹.

Q: Which “self-cleavage kobs at 10000 uM GlcN6P” value does the source give for AUAAAAGCGCCUGAACUACAGAAAUGUAGUUGACGAGGAGCAGGUGUAUCGAAUUUUCGGCGGAUGCAUCCAAA [A12U G41C U46G C68A] here?
A: Its value is < 1e-05 s⁻¹.

Q: AUAAAAGUGCCAGAACUACAGAAAUGUAGUUGACGAGGAGGAGGUUUAUCGAAUGUUCGGCGGAGGCCUCCAAA [C8U U55G U65G] was tested. Which “self-cleavage kobs at 10000 uM GlcN6P” value did it give?
A: The value was < 1e-05 s⁻¹.
